Results reported in article PMC12117405 (Nucleic Acids Research, 2025).

Legend:
Assay in all cases: pull-down
[1] = target: SmD1/D2 (human, UniProt P62314;P62316)
[2] = target: SmF/E/G (human, UniProt P62306;P62304;P62308)
[3] = target: Lsm6/5/7 (human, UniProt P62312;Q9Y4Y9;Q9UK45)
Sequence of Lsm6/5/7 (Q9Y4Y9 whole entry, chain 2 of 2): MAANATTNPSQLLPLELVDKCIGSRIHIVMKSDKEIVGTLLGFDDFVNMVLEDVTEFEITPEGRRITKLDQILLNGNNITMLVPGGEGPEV
Sequence of Lsm6/5/7 (Q9UK45 whole entry, chain 3 of 2): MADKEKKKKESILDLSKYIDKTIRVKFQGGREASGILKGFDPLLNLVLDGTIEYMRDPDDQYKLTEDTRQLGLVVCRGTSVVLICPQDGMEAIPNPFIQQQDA

| binding result [1] | binding result [2] | binding result [3] | Binder |
| --- | --- | --- | --- |
| binds | binds | – | His-tagged Gemin2/MBP-SMN(26-62) (complex) chain 1: FDPSVPPRTPQEYLRRVQIEAAQCPDVVVAQIDPKKLKRKQSVNISLSGCQPAPEGYSPTLQWQQQQVAQFSTVRQNVNKHRSHWKSQQLDSNVTMPKSEDEEGWKKFCLGEKLCADGAVGPATNESPGIDYVQIGFPPLLSIVSRMNQATVTSVLEYLSNWFGERDFTPELGRWLYALLACLEKPLLPEAHSLIRQLARRCSEVRLLVDSKDDERVPALNLLICLVSRYFDQRDLADEPS chain 2: GQSDDSDIWDDTALIKAYDKAVASFKHALKNGDICET |
| – | – | binds | Lsm2/3 (complex) chain 1: MLFYSFFKSLVGKDVVVELKNDLSICGTLHSVDQYLNIKLTDISVTDPEKYPHMLSVKNCFIRGSVVRYVQLPADEVDTQLLQDAARKEALQQKQ chain 2: not shown |
